The test system of the data set is N#CCNC(=O)c1cnccc1C(F)(F)F. Description: purified protein. The note with it: 37 °C, 10 min, pH of kinetics not stated, hydration to TFNG-AM.

The Km is the substrate concentration at which the rate is half of its maximum. The Vmax is the top rate of the reaction or transport when substrate is in excess.

In the case of CnhA (Ensifer adhaerens), the Michaelis constant (Km) turned out to be 5.07 mM and the Vmax came out at 9.55 µmol/min/mg.

Turning to PnhA (Ensifer adhaerens), the Michaelis-Menten constant (Km) stood at 2.96 mM and the maximum rate (Vmax) stood at 88.7 µmol/min/mg.
